Data on four molecules can be found in patent US20210403538A1 (published 2021).

For experiment [1], the target named is T1, EBOV GP [change] (Zaire ebolavirus (EBOV), strain Makona). Put plainly: BLI. Background: In BLI a coated tip is dipped into the sample, and binding shifts an interference pattern.
Another experiment deals with BDBV GP [change] (Bundibugyo ebolavirus (BDBV), strain …). Put plainly: ELISA. A general note: An ELISA detects its analyte on a solid surface through an enzyme-linked reagent.
The target of experiment [2] is T1, EBOV GP [change]. Put plainly: ELISA.

B1: rEBOV-542 (antibody, V domains shown)
VH: EVQLVESGGGLVQPGGSLRLSCAASGFTVSNNYMSWVRQAPGKGLEWVSLIYTSVTTYYADSVKGRFTISRDNSKNTLYLQMNSLRAEDTAVYYCARELGNWSYGVSYWGRGTLVTVSS
VL: SYELTQPPSVSVSPGQTARITCSGDALPKQYAYWYQQKPGQAPVLVIYKDSERPSGIPERFSGSSSGTTVTLTISGVQAEDGADYYCQSADGSGTYPVVFGGGTKLTVL
A word on the Kd: it is the free concentration of one partner at which half of the binding sites on the other are occupied at equilibrium, for simple one-to-one binding. The term EC50 denotes the concentration needed to bring the measured effect to its halfway point. A low value points to greater potency. In the experiment with EBOV GP [change] [1], B1 registered a Kd of 0.26 nM. Further, the EC50 with BDBV GP [change] stood at 8 ng/mL; with EBOV GP [change] [2], 11 ng/mL.

B2: EBOV-515 (antibody, V domains shown)
VH: QVQLQESGPGLVKPSQTLSLTCTVSGGSINSAGYYWTWIRQHPGKGLEWIGYIDYTGRTYYNPSLESRVIISIDTSKNHFSLRLTSVSAADTAVYYCARESSWVSELGRDNWGQGTLVTVSS
VL: EIVMTQSPATLPVSPGEGATLSCRASQSVFTNLAWYQQKPGQAPRLLIYDASTRATGIPARFSGSGSGTEFTLTISSLQSEDFAVYYCQQYNNWPRTYGQGTRVEVK
B2 displayed a Kd with EBOV GP [change] [1] of 0.53 nM. That is a sub-nanomolar value.

B3: rEBOV-520 LALA (antibody, V domains shown)
VH: QVQLQESGPGLGKPSETLSLSCTVSGASIRGYFWNWIRQPPGKGLEWIGYIHSTGSTNYNPSLKSRVTISVDTSKNQVSLNVNSVTAADTAVYFCARGAWNVATVYYYYGMDVWGQGTLVTVSS
VL: EIVLTQSPGTLSLSPGERATLSCRASQSVSSSYFAWYQQKPGQAPRLLISGTSTRAPGIPDRFSGSGSGTDFTLTISRLEPEDFAVYFCQQYGNSLYTFGQGTKLEIK
For B3, the Kd with EBOV GP [change] [1] amounted to 2.12 nM. Besides, the figures for the EC50 with BDBV GP [change] and with EBOV GP [change] [2] were 45 ng/mL and 18 ng/mL, respectively.

B4: rEBOV-548 (antibody, V domains shown)
VH: QVQVEESGGGVVQPGGSLRLSCAASGFMFSNYGMHWVRQAPGKGLEWMAFIRYDDSKKFYADSVKGRFTISRDNSKNTLYLQMNSLRAEDTALYYCAKELLQVYTSAWGEGHSYYYALDVWGLGTAVTVSS
VL: DIQMTQSPSSVSASVGDRVTITCRASQDISNWLAWYQQKPGKAPELLIYTASILQSGVSSRFSGSGSGTDFTLTISSLQPEDSATYYCQQGKSFPYTFGQGTKLEIK
For B4, in the experiment with EBOV GP [change] [1], the Kd amounted to 0.041 nM. Besides, the EC50 with BDBV GP [change] came to 7 ng/mL; with EBOV GP [change] [2] it was 6 ng/mL.
